B1: Protein nutcracker (Drosophila melanogaster (Fruit fly)), Q8SX86 (parent)
chain: MSDTKSEIEGFIAIPTTSGEQQQQQPQQQQNEQQVVGTKDIKAPDQVGKKQRPRLIQEKSTQETNPLILEHATLEWVPQHMDKLLNQYQECRKMPAAEWLHLLTYLVALECGFVEEETFAQKRHLIQPVPSFSSFHAQNVRILSEQPARYEVCFNDTVYIMRLRTLLDKHAPEETSLVAALQCRLMAVSLGDQLMITLSPAPPSKEPGYSVSLSIGRYVLNIQAKNKPIYHRFRKLDELSYQLKQHLFQPMRSQQLMQMEMKLQPSLLGLPDELYFEIFRYLDKSQLNVVARVNRHLHFYSKEVERKRLKGGRS
partner: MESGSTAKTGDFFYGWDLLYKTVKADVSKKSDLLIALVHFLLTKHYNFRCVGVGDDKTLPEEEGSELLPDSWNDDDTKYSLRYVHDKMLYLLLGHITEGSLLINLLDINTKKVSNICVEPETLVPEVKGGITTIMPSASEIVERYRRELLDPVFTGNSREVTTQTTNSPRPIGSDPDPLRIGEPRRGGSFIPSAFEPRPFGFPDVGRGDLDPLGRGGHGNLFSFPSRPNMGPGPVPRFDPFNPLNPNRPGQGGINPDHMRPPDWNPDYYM

Variants of: B1
Conditions: with psmf1_drome PI31, Q9V637

effect of a mutation on the interaction | Variant
decreasing interaction | V188E

Source: IntAct's records for PubMed 21529711
